US20190367605A1 (AstraZeneca / MedImmune, published 2019)

Legend:
[1] = biological target: T1, human ASCT2 (system ASC amino acid transporter 2, SLC1A5) (human, UniProt Q15758 1-541); experiment: cell-based or functional assay
T1 sequence (looked up): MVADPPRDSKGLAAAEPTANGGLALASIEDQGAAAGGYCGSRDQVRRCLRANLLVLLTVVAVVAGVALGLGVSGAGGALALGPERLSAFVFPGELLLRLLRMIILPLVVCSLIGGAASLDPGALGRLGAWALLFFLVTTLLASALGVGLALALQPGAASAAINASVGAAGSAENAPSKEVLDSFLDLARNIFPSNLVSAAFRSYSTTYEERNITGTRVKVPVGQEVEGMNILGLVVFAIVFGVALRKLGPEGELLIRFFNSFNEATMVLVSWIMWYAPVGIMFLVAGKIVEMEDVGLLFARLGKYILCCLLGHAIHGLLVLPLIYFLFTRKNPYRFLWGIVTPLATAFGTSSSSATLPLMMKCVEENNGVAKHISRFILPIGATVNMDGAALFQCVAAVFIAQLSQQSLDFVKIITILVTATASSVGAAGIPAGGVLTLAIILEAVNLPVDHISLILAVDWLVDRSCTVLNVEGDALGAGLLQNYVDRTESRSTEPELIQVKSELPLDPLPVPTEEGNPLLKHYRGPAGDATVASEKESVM

cynomolgus monkey ASCT2 [2] = biological target: T2, cynomolgus monkey ASCT2 (cynomolgus monkey (Macaca fascicularis), UniProt G7PXZ3 1-542); experiment: binding to CHOK1 cells stably expressing cyno ASCT2; clones conjugated to tubulysin AZ1508 per paragraph 353
T2 construct: whole, on cells; Present on stably transfected CHOK1 cells or endogenously on the cyno cell line CynoMK1; also called cyno ASCT2; CynoASCT2
T2 sequence: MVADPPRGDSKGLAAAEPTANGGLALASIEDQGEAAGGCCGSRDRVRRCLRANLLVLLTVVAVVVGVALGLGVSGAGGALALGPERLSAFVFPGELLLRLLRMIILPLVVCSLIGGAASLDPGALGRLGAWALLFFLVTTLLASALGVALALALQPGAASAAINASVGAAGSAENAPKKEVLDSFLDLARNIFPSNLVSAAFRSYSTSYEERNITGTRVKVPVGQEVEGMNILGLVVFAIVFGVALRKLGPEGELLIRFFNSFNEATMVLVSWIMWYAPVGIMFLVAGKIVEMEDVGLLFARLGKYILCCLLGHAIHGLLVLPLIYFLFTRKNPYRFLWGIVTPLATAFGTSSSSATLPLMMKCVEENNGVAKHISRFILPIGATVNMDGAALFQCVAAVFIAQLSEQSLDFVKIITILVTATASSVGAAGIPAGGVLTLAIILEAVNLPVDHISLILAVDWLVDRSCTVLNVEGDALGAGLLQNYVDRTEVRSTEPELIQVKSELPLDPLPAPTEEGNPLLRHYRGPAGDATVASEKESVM

[3] = biological target: T1, human ASCT2 (system ASC amino acid …); experiment: cell-based or functional assay; remark: listed apart in the source
cynomolgus monkey ASCT2 [4] = biological target: T2, cynomolgus monkey ASCT2; experiment: cell-based or functional assay
[5] = biological target: T1, human ASCT2 (system ASC amino acid …); experiment: binding to CHOK1 cells stably expressing human ASCT2; clones conjugated to tubulysin AZ1508 per paragraph 353
[6] = biological target: T1, human ASCT2 (system ASC amino acid …); experiment: cell-based or functional assay; remark: listed apart in the source
[7] = biological target: T1, human ASCT2 (system ASC amino acid …); experiment: flow cytometry, titration of fluorophore-labelled antibody on WiDr cells
Procedure: (§1) Human, cynomolgous monkey, and CHO-derived cell lines expressing ASCT2 were utilized to assessed binding affinity and cross reactivity of ASCT2-specific antibodies. Apparent affinities were measured by titrating fluorophore labeled antibodies.
(§2) Results for human cancer cell line Ca127 are shown in FIG. 6A; results for human cancer cell line FaDu are shown in FIG. 6B; results for human cancer cell line SSC15 are shown in FIG. 6C; results for human cancer cell line WiDr are shown in FIG. 6D; results for CHOK1 cells stably expressing human ASCT2 are shown in FIG. 6E; results for CHOK1 cells stably expressing cyno ASCT2 are shown in FIG. 6F); results for cyno cancer cell line CynoMK1 are shown in FIG. 6G; and results for mock transfected CHOK1 cells are shown in FIG. 6H.

cynomolgus monkey ASCT2 [8] = biological target: T2, cynomolgus monkey ASCT2; experiment: flow cytometry, titration of fluorophore-labelled antibody on CHOK1 cells stably expressing cyno ASCT2
Procedure: as §1, §2

cynomolgus monkey ASCT2 [9] = biological target: T2, cynomolgus monkey ASCT2; experiment: flow cytometry, titration of fluorophore-labelled antibody on cyno cell line Cyno MK1
Procedure: as §1, §2

[10] = biological target: T1, human ASCT2 (system ASC amino acid …); experiment: flow cytometry, titration of fluorophore-labelled antibody on CHOK1 cells stably expressing human ASCT2
Procedure: as §1, §2

ASCT1 (SLC1A4) = biological target: T3, ASCT1 (SLC1A4) (human, UniProt P43007 1-532); experiment: flow cytometry on SKMEL-2 cells after shRNA knockdown of ASCT1 (binding not ablated)
T3 construct: whole, on cells; also called ASC transporter 1; human ASCT1
T3 sequence (looked up): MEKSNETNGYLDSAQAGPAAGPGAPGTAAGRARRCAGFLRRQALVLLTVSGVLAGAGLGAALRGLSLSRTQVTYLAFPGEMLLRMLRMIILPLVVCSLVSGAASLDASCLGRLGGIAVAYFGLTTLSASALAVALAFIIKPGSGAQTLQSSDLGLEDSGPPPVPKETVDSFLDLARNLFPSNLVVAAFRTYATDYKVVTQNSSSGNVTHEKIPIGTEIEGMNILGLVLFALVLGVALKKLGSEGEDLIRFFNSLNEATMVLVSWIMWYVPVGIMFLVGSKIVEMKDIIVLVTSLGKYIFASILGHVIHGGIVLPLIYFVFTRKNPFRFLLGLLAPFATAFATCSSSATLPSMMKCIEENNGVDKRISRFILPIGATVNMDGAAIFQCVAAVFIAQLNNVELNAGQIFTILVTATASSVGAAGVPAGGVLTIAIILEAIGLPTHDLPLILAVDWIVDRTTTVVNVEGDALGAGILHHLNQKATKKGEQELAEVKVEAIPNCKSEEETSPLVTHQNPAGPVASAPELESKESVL

[11] = biological target: T1, human ASCT2 (system ASC amino acid …); experiment: flow cytometry, titration of fluorophore-labelled antibody on Cal27 cells
Procedure: as §1, §2

[12] = biological target: T1, human ASCT2 (system ASC amino acid …); experiment: flow cytometry, titration of fluorophore-labelled antibody on SSC15 cells
Procedure: as §1, §2

[13] = biological target: T1, human ASCT2 (system ASC amino acid …); experiment: flow cytometry, titration of fluorophore-labelled antibody on FaDu cells
Procedure: as §1, §2

[14] = biological target: T1, human ASCT2 (system ASC amino acid …); experiment: flow cytometry on WiDr cells and CHO cells expressing HuASCT2
Description: The amino acid sequences of the VH and VL domains for 17c10 were aligned to the known human germline sequences in the VBASE database, and the closest germline was identified by sequence similarity. For the VH domain, this was IgVh4-34*01; for the VL domain, it was IgKv1-5*03. For 17c10, the germlining process involved reverting 1 framework residue in the VH domain and 5 residues in the VL domain. In the VH domain, the reversion mutation was at Kabat position 82a, where threonine (T) was reverted to serine (S). In the VL domain, the mutations were at Kabat position 13, 21, 39, 70, and 76 where at Kabat position 13 threonine (T) was reverted to alanine (A); at Kabat position 21 leucine (L) was reverted to isoleucine (I); at Kabat position 39 Asparagine (N) was reverted to lysine (K); at Kabat position 70 aspartate (D) was reverted to glutamate (E), and at Kabat position 76 threonine (T) was reverted to serine (S). These changes were made by synthesizing VH and VL domains with these mutations and replacing existing VH and VL using restriction digestion and ligation. Both the germlined and original (non-germlined) 17c10 were expressed as IgGs, and their affinity to multiple ASCT2-expressing cell lines was assessed by flow cytometry.

B1: anti-ASCT2 17C10 classically conjugated to tubulysin AZ1508 (antibody, human IgG1, V domains shown)
VH: QVQLQQWGAGLLKPSETLSLTCAVYGGSFSGYYWSWIRQPPGKGLEWIGEIHHSGGANYNPSLKSRVTISVDTSKNQFSLKLTSVTAADTAVYYCARGQGKNWHYDYFDYWGQGTLVTVSS
VL: DIQMTQSPSTLSTSVGDRVTLTCRASQSIRSWLAWYQQNPGKAPKLLIYKASILKIGVPSRFSGSGSGTDFTLTITSLQPDDFATYYCQQYYSYSRTFGQGTKVEIK
modifications: tubulysin AZ1508 conjugated classically (native cysteine residues, thiol-maleimide linkage); positions not given
With B1 the “IC50 (ng/ml), ADC-mediated cytotoxic killing, SW48 cells, CellTiter-Glo, 72 h” value [1] was 46 ng/mL.

B2: anti-ASCT2 antibody 1e8 conjugated to tubulysin AZ1508 (Example 4) (antibody, V domains shown)
VH: QVQLQQWGAGLLKPSETLSLTCAVYGGSFSGYYWSWIPQPPGKGVEWIGEINHSGSTNYNPSLKSRVTISSDTSKNQFSLKLTSVTAADTAVYYCARGQGKNWNYDYFDYWGQGTLVTVSS
VL: DIQMTQSPSTLSASVGDRVTLTCRASQSIRSWLAWYQQKPGKAPKLLIYKASSLKSGVPSRFSGSGSGTDFTLTISSLQPDDFATYYCQQYYSFSRTFGQGTKVEIK
modifications: tubulysin AZ1508 conjugated; mode and site of conjugation not stated for these experiments
notes: Antibody-drug conjugate; also called 1e8 conjugated to tubulysin 1508
With B2 the EC50 (cynomolgus monkey ASCT2 [2]) was 28.4 nM, the “Cytotoxicity IC50 (ng/ml), CHOK1 cells stably expressing human ASCT2” value [3] was 20.7 ng/mL and the “Cytotoxicity IC50 (ng/ml), CHOK1 cells stably expressing cyno ASCT2” value (cynomolgus monkey ASCT2 [4]) was 140 ng/mL. The EC50 [5] was 8.1 nM.

B3: anti-ASCT2 1E8 classically conjugated to tubulysin AZ1508 (antibody, human IgG1, V domains shown)
VH: QVQLQQWGAGLLKPSETLSLTCAVYGGSFSGYYWSWIPQPPGKGVEWIGEINHSGSTNYNPSLKSRVTISSDTSKNQFSLKLTSVTAADTAVYYCARGQGKNWNYDYFDYWGQGTLVTVSS
VL: DIQMTQSPSTLSASVGDRVTLTCRASQSIRSWLAWYQQKPGKAPKLLIYKASSLKSGVPSRFSGSGSGTDFTLTISSLQPDDFATYYCQQYYSFSRTFGQGTKVEIK
modifications: tubulysin AZ1508 conjugated classically (native cysteine residues, thiol-maleimide linkage); positions not given
For B3, the “IC50 (ng/ml), ADC-mediated cytotoxic killing, SW48 cells, CellTiter-Glo, 72 h” value [1] was 34.8 ng/mL.

B4: anti-ASCT2 antibody 17c10 conjugated to tubulysin AZ1508 (17c10-AZ1508, Example 4) (antibody, V domains shown)
VH: QVQLQQWGAGLLKPSETLSLTCAVYGGSFSGYYWSWIRQPPGKGLEWIGEIHHSGGANYNPSLKSRVTISVDTSKNQFSLKLTSVTAADTAVYYCARGQGKNWHYDYFDYWGQGTLVTVSS
VL: DIQMTQSPSTLSTSVGDRVTLTCRASQSIRSWLAWYQQNPGKAPKLLIYKASILKIGVPSRFSGSGSGTDFTLTITSLQPDDFATYYCQQYYSYSRTFGQGTKVEIK
modifications: tubulysin AZ1508 conjugated; mode and site of conjugation not stated for these experiments
notes: Antibody-drug conjugate; also called 17c10-ADC; ASCT2-ADC
In the case of B4, the EC50 (cynomolgus monkey ASCT2 [2]) is reported as 9.6 nM, the “IC50 (ng/ml), cytotoxic killing of SKMEL-2 cells with ASCT1-shRNA1” value [6] is reported as 7.59 ng/mL and the “IC50 (ng/ml), cytotoxic killing of SKMEL-2 cells with ASCT1-shRNA2” value [6] is reported as 4.96 ng/mL. For the same binder, the “IC50 (ng/ml), cytotoxic killing of SKMEL-2 cells with ASCT2-shRNA” value [6] was 205 ng/mL, the “IC50 (ng/ml), cytotoxic killing of SKMEL-2 cells with NTshRNA” value [6] was 14.3 ng/mL and the “Cytotoxicity IC50 (ng/ml), CHOK1 cells stably expressing human ASCT2” value [3] was 5.53 ng/mL. For the same binder, the “Cytotoxicity IC50 (ng/ml), CHOK1 cells stably expressing cyno ASCT2” value (cynomolgus monkey ASCT2 [4]) was 8.59 ng/mL and the EC50 [5] was 8.6 nM.

B5: anti-ASCT2 antibody 17c10 (original, non-germlined, parental) (antibody, V domains shown)
VH: QVQLQQWGAGLLKPSETLSLTCAVYGGSFSGYYWSWIRQPPGKGLEWIGEIHHSGGANYNPSLKSRVTISVDTSKNQFSLKLTSVTAADTAVYYCARGQGKNWHYDYFDYWGQGTLVTVSS
VL: DIQMTQSPSTLSTSVGDRVTLTCRASQSIRSWLAWYQQNPGKAPKLLIYKASILKIGVPSRFSGSGSGTDFTLTITSLQPDDFATYYCQQYYSYSRTFGQGTKVEIK
notes: also called 17c10 parental antibody; ASCT2 mAb 17c10
B5 gave an EC50 [7] of 7 nM, an EC50 (cynomolgus monkey ASCT2 [8]) of 9.6 nM and an EC50 (cynomolgus monkey ASCT2 [9]) of 6.7 nM. For the same binder, the EC50 [10] was 8.6 nM, the binding result (ASCT1 (SLC1A4)) was “no binding” and the EC50 [11] was 2.8 nM. The EC50 [12] was 3.6 nM and the EC50 [13] was 3.8 nM.

B6: germlined 17c10 antibody (antibody, V domains shown)
VH: QVQLQQWGAGLLKPSETLSLTCAVYGGSFSGYYWSWIRQPPGKGLEWIGEIHHSGGANYNPSLKSRVTISVDTSKNQFSLKLSSVTAADTAVYYCARGQGKNWHYDYFDYWGQGTLVTVSS
VL: DIQMTQSPSTLSASVGDRVTITCRASQSIRSWLAWYQQKPGKAPKLLIYKASILKIGVPSRFSGSGSGTEFTLTISSLQPDDFATYYCQQYYSYSRTFGQGTKVEIK
notes: also called 17c10 germlined antibody
B6: binds [14].

B7: anti-ASCT2 antibody 1e8 (original) (antibody, V domains shown)
VH: QVQLQQWGAGLLKPSETLSLTCAVYGGSFSGYYWSWIPQPPGKGVEWIGEINHSGSTNYNPSLKSRVTISSDTSKNQFSLKLTSVTAADTAVYYCARGQGKNWNYDYFDYWGQGTLVTVSS
VL: DIQMTQSPSTLSASVGDRVTLTCRASQSIRSWLAWYQQKPGKAPKLLIYKASSLKSGVPSRFSGSGSGTDFTLTISSLQPDDFATYYCQQYYSFSRTFGQGTKVEIK
notes: also called ASCT2 mAb 1e8
B7 was tested, and the EC50 [7] was 5.8 nM, the EC50 (cynomolgus monkey ASCT2 [8]) was 28.4 nM and the EC50 (cynomolgus monkey ASCT2 [9]) was 14.8 nM. It also gave an EC50 [10] of 8.1 nM, an EC50 [11] of 13 nM and an EC50 [12] of 8.8 nM. The EC50 [13] was 6.8 nM.
